# Experimental data as given in US8936806B2, “Periostin induces proliferation of cardiomyocytes and promotes cardiac regeneration” (Children's Medical Center Corporation, priority 2007, dated 2015).
# B1: periostin: Recombinant periostin, purified from HEK293 cells expressing the full-length human cDNA; secreted protein of 834 amino acids (Seq ID. No. 1) (protein, listed as Homo sapiens)
# chain: MIPFLPMFSLLLLLIVNPINANNHYDKILAHSRIRGRDQGPNVCALQQILGTKKKYFSTCKNWYKKSICGQKTTVLYECCPGYMRMEGMKGCPAVLPIDHVYGTLGIVGATTTQRYSDASKLREEIEGKGSFTYFAPSNEAWDNLDSDIRRGLESNVNVELLNALHSHMINKRMLTKDLKNGMIIPSMYNNLGLFINHYPNGVVTVNCARIIHGNQIATNGVVHVIDRVLTQIGTSIQDFIEAEDDLSSFRAAAITSDILEALGRDGHFTLFAPTNEAFEKLPRGVLERFMGDKVASEALMKYHILNTLQCSESIMGGAVFETLEGNTIEIGCDGDSITVNGIKMVNKKDIVTNNGVIHLIDQVLIPDSAKQVIELAGKQQTTFTDLVAQLGLASALRPDGEYTLLAPVNNAFSDDTLSMVQRLLKLILQNHILKVKVGLNELYNGQILETIGGKQLRVFVYRTAVCIENSCMEKGSKQGRNGAIHIFREIIKPAEKSLHEKLKQDKRFSTFLSLLEAADLKELLTQPGDWTLFVPTNDAFKGMTSEEKEILIRDKNALQNIILYHLTPGVFIGKGFEPGVTNILKTTQGSKIFLKEVNDTLLVNELKSKESDIMTTNGVIHVVDKLLYPADTPVGNDQLLEILNKLIKYIQIKFVRGSTFKEIPVTVYTTKIITKVVEPKIKVIEGSLQPIIKTEGPTLTKVKIEGEPEFRLIKEGETITEVIHGEPIIKKYTKIIDGVPVEITEKETREERIITGPEIKYTRISTGGGETEETLKKLLQEEVTKVTKFIEGGDGHLFEDEEIKRLLQGDTPVRKLQANKKVQGSRRRLREGRSQ
# Assays:
# [1] = Diffusion range and presence of recombinant periostin in myocardium after epicardial Gelfoam patch; type: in vivo, rat; details: after 12 weeks
# Experimental: To develop a long-term delivery system for recombinant periostin, we determined if recombinant periostin associated with Gelfoam, a biodegradable biological scaffold. Gelfoam patches (Pfizer, New York, N.Y.) of 1 cm^2 diameter were loaded with 100 μg of recombinant human periostin and incubated with 1 mL of PBS at 37° C. with continuous agitation for 10 weeks. The supernatant was replaced every 2 weeks and the concentration of recombinant periostin in the supernatant was determined by Western blot using a polyclonal antibody directed against human periostin (Abeam). The diffusion range of recombinant periostin in myocardium was determined with a polyclonal antibody directed against human periostin followed by immunofluorescence microscopy. Presence of periostin in the myocardium was determined by Western blot using a polyclonal antibody directed against human periostin (Abeam).
# Adult male Sprague-Dawley rats (300 gm, Charles River Laboratories) underwent experimental myocardial infarction as described (del Monte, F. et al. Abrogation of ventricular arrhythmias in a model of ischemia and reperfusion by targeting myocardial calcium cycling. Proc Natl Acad Sci USA 101, 5622-7 (2004)). The survival rate was 67%. Gelfoam loaded with 100 μg of recombinant periostin or with buffer were applied over the myocardial infarction at the time of surgery. […]
# [2] = test system: atrial natriuretic factor (ANF); experiment: Transcription of atrial natriuretic factor by RT-PCR in neonatal cardiomyocytes; type: cell-based, rat; details: 72 hr stimulation
# Experimental: RNA was prepared using Trizol reagent (Invitrogen) from neonatal rat ventricular cardiomyocytes after 72 hr of stimulation. Complementary DNA was synthesized from 2 μg RNA with the SuperScriptIII kit (Invitrogen) using oligo-dT primers. One μL cDNA was used as template for 20 μL PCR-reactions (95° C. for 2 min, 30 cycles of 95° C. for 2 min, 55° C. for 2 min, 72° C. for 5 min, followed by 72° C. for 10 min). Oligonucleotide primers used for detection of ANF were F: 5′-[…]-3′ (Seq ID No. 2), R: 5′-[…]-3′ (Seq ID No. 3), β-actin were F: 5′-[…]-3′ (Seq ID No. 4), R: 5′-[…]-3′ (Seq ID No. 5), […] were F: 5′-[…]-3′ (Seq ID No. 6), R: 5′-[…]-3′ (Seq ID No. 7); SMA were F: 5′-[…]-3′ (Seq ID No. 8), R: 5′-[…]-3′ (Seq ID No. 9); SERCA2 were F: 5′-[…]-3′ (Seq ID No. 10), R: 5′-[…]-3′ (Seq ID No. 11), and for GAPDH: 5′-[…]-3′ (Seq ID No. 12), R: 5′-[…]-3′ (Seq ID No. 13).
# [3] = test system: primary neonatal rat ventricular cardiomyocytes; experiment: Cardiomyocyte apoptosis (TUNEL) and survival
# Experimental: To determine cardiomyocyte proliferation, primary neonatal rat ventricular cardiomyocytes were quantified by counting with a hemocytometer after 3 days and 6 days of stimulation. To determine cardiomyocyte survival, primary neonatal rat ventricular cardiomyocytes were pre-treated with 500 ng/mL periostin or buffer for 30 min and then exposed to 0.5 μM doxycycline or 100 ng/mL TNFα for 24 hr and quantified by counting. Corresponding samples were stained with an antibody directed against tropomyosin as a cardiomyocyte marker to control for the percentage of differentiated cardiomyocytes. Apoptotic cardiomyocyte nuclei were determined after 24 hr with the In situ Cell Death Detection Kit (Roche, Indianapolis, Ind.) in combination with staining for troponin I.
molecule,measurement,setting,value
B1,presence of periostin in the left ventricle by immunoblotting,[1],confirmed presence
same,distance from the epicardium to the farthest diffusion range of periostin,[1]; epicardial Gelfoam patch,461±62
same,transcription of atrial natriuretic factor (ANF),[2],did not induce
same,cardiomyocyte survival,"[3]; 500 ng/mL pre-treatment, then doxorubicin or TNF-α 24 hr",not affected
same,doxorubicin or TNF-α-induced cardiomyocyte death,[3]; FIG. 2L,did not reduce
same,baseline and induced cardiomyocyte apoptosis,"[3]; TUNEL, 24 hr",not affected
